Data from article PMC5825162.

How the values were obtained:
[1] = molecular target: KSHV gH/gL glycoprotein complex (gH-V5/gL-Flag), wild type (Kaposi's sarcoma-associated herpesvirus (KSHV)) (UniProt F5HAK9)
[2] = molecular target: RRV gH/gL glycoprotein complex (gH-V5/gL-Flag), wild type (rhesus monkey rhadinovirus (RRV))

Sequence of UniProt F5HAK9 (F5HAK9 whole entry, looked up, one chain of several): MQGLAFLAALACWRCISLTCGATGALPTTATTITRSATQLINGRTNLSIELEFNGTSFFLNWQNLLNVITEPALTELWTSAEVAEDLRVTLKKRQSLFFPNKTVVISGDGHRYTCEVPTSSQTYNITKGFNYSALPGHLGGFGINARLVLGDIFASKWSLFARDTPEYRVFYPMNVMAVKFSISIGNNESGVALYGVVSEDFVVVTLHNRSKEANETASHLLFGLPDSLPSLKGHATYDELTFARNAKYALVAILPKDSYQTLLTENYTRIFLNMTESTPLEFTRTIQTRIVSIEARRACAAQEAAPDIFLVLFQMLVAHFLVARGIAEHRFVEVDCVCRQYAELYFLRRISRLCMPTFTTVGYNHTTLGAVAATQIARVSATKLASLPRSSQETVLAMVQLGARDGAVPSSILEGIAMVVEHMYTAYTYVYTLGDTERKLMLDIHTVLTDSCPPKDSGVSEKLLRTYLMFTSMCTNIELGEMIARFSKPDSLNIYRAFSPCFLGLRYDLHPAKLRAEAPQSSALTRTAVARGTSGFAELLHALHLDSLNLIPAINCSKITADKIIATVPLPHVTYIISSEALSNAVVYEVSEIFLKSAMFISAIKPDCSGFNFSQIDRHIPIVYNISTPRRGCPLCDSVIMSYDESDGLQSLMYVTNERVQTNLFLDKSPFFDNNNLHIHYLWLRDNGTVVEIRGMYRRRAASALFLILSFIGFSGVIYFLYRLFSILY

In the case of “soluble EphA2-Fc fusion construct comprising amino acids 25–534 of human EphA2 (from UniProt P29317-1 25-534)”, the inhibition of KSHV wt infection of SLK cells (GFP, flow cytometry) after pre-incubation of the virus with soluble EphA2-Fc, dose series; gH/gL on virions [1] is reported as 90%.

B1: Recombinant, human, soluble EphB3-Fc (Fc fusion)
chain: GCRALEETLMDTKWVTSELAWTSHPESGWEEVSGYDEAMNPIRTYQVCNVRESSQNNWLRTGFIWRRDVQRVYVELKFTVRDCNSIPNIPGSCKETFNLFYYEADSDVASASSPFWMENPYVKVDTIAPDESFSRLDAGRVNTKVRSFGPLSKAGFYLAFQDQGACMSLISVRAFYKKCASTTAGFALFPETLTGAEPTSLVIAPGTCIPNAVEVSVPLKLYCNGDGEWMVPVGACTCATGHEPAAKESQCRPCPPGSYKAKQGEGPCLPCPPNSRTTSPAASICTCHNNFYRADSDSADSACTTVPSPPRGVISNVNETSLILEWSEPRDLGGRDDLLYNVICKKCHGAGGASACSRCDDNVEFVPRQLGLTERRVHISHLLAHTRYTFEVQAVNGVSGKSPLPPRYAAVNITTNQAAPSEVPTLRLHSSSGSSLTLSWAPPERPNGVILDYEMKYFEKSEGIASTVTSQMNSVQLDGLRPDARYVVQVRARTVAGYGQYSRPAEFETTSERGSGAQQLQEQLPL
Molecule B1 has an inhibition of RRV 26–95 wt infection of SLK cells (YFP, flow cytometry) after pre-incubation of the virus with soluble EphB3-Fc, dose series; gH/gL on virions [2] of 80%.
